Target: PF0699 (conserved hypothetical protein) (Pyrococcus furiosus) (UniProt Q8U2X9)
Experiment: SAXS

In the case of “PF0699 (conserved hypothetical protein) (from UniProt Q8U2X9 1-139) (natural protein)”, the stoichiometry N is reported as 2.

From PMC3094553
